Our source for the Kd values is paper PMC10873205 (2024).

In this assay the target is UBE2A (UniProt P49459 1-152). The assay can be described thus: ITC.

B1: UBR4_(xtal) Ser4930Arg (domain or fragment)
chain: AIQHPGTQVLIGTDSIPNLHKLEQVSSDEGIGTLAENLLEALREHPDVNKKIDAARRETRAEKKRMAMAMRQKALGTLGMTTNEKGQVVTKTALLKQMEELIEEPGLTCCICREGYKFQPTKVLGIYTFTKRVALEEMENKPRKQQGYSTVSHFNIVHYDCHLAAVRLARGREEWESAALQNANTKCNGLLPVWGPHVPERAFATCLARHNTYLQECTGQREPTYQLNIHDIKLLFLRFAMEQSFSADTGGGGRESNIHLIPYIIHTVLYVLNTTRATSREEKNLQGFLEQPKEKWVESAFEVDGPYYFTVLALHILPPEQWRATRVEILRRLLVTSQARAVAPGGATRLTDKAVKDYSAYRSSLLFWALVDLIYNMFKKVPTSNTEGGWSCSLAEYIRHNDMPIYEAADKALKTFQEEFMPVETFSEFLDVAGLLSEITDPESFLKDLLNSVP
On to B1, for which binding was put at a Kd of 1470 nM.
